Source: PMC6572841, “Structural basis for the inhibition of translation through eIF2α phosphorylation” (Nature Communications, 2019)

T1: eIF2Bβ (Saccharomyces cerevisiae, UniProt P32502 1-381)
T1 construct: eIF2Bβ, S. cerevisiae; Subunit of m2 as it stood in the eIF2B-eIF2(αP) complex; also called eIF2B β subunit; source: over-expressed in S. cerevisiae strain GP4109, purified as part of Flag-tagged eIF2B
T1 sequence: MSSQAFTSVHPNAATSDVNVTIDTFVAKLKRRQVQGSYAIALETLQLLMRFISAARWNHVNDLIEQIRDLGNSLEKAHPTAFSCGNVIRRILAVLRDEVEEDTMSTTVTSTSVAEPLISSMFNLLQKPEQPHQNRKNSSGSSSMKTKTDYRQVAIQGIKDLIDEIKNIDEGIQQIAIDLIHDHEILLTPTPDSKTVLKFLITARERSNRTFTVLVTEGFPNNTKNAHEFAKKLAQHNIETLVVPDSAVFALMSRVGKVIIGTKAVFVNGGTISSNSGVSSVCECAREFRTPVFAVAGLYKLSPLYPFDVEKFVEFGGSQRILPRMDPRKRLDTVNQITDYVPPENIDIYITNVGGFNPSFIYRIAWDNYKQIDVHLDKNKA

T2: eIF2Bδ (Saccharomyces cerevisiae, UniProt P12754 1-651)
T2 construct: eIF2Bδ, S. cerevisiae; Subunit of m2 as it stood in the eIF2B-eIF2(αP) complex; also called eIF2B δ subunit; source: over-expressed in S. cerevisiae strain GP4109, purified as part of Flag-tagged eIF2B
T2 sequence: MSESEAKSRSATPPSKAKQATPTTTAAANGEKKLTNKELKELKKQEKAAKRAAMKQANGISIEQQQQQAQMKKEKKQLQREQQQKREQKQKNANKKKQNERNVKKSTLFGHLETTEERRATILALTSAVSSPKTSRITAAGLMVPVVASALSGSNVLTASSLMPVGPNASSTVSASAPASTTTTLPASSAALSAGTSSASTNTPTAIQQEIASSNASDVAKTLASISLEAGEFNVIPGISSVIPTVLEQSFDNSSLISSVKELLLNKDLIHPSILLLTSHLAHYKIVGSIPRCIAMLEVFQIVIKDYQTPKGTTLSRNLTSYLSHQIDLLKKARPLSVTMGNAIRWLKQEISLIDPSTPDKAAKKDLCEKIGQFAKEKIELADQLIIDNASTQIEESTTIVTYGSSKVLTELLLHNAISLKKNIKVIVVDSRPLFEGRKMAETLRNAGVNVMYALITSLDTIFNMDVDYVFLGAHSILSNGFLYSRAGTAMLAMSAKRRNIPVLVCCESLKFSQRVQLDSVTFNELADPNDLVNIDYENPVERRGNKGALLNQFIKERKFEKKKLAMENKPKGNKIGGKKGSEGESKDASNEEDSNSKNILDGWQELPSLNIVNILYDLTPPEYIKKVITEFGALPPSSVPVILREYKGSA

T3: eIF2Bε (Saccharomyces cerevisiae, UniProt P32501 1-712)
T3 construct: eIF2Bε, S. cerevisiae; Subunit of m2 as it stood in the eIF2B-eIF2(αP) complex; the ε-cat HEAT domain was not included in any model; also called eIF2B ε subunit; source: over-expressed in S. cerevisiae strain GP4109, purified as part of Flag-tagged eIF2B
T3 sequence: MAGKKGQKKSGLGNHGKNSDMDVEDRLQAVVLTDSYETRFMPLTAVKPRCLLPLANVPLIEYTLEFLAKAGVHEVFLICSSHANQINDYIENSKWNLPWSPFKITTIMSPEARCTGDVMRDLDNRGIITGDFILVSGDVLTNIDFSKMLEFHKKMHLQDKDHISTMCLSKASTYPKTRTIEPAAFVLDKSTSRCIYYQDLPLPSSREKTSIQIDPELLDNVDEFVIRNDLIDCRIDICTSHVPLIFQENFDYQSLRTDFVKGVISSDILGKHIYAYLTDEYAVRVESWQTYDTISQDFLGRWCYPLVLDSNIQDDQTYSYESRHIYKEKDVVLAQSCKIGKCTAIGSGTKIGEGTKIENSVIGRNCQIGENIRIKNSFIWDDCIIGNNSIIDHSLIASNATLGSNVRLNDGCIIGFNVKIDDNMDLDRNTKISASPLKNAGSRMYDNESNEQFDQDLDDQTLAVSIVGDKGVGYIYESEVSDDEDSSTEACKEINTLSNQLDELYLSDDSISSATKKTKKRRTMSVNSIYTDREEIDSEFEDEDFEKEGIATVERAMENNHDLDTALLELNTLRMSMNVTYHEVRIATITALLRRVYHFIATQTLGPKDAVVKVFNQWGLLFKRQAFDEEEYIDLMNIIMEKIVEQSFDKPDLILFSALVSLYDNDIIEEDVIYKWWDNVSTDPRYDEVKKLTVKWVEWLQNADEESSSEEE

B1: eIF2Bα (natural protein, Saccharomyces cerevisiae)
chain: MSEFNITETYLRFLEEDTEMTMPIAAIEALVTLLRIKTPETAAEMINTIKSSTEELIKSIPNSVSLRAGCDIFMRFVLRNLHLYGDWENCKQHLIENGQLFVSRAKKSRNKIAEIGVDFIADDDIILVHGYSRAVFSLLNHAANKFIRFRCVVTESRPSKQGNQLYTLLEQKGIPVTLIVDSAVGAVIDKVDKVFVGAEGVAESGGIINLVGTYSVGVLAHNARKPFYVVTESHKFVRMFPLSSDDLPMAGPPLDFTRRTDDLEDALRGPTIDYTAQEYITALITDLGVLTPSAVSEELIKMWYD
notes: eIF2Bα, S. cerevisiae; Subunit of m2 as it stood in the eIF2B-eIF2(αP) complex; also called eIF2B α subunit; source: over-expressed in S. cerevisiae strain GP4109, purified as part of Flag-tagged eIF2B
B2: eIF2α phosphorylated at Ser51 (natural protein, Saccharomyces cerevisiae, UniProt P20459 1-304, looked up)
chain: MSTSHCRFYENKYPEIDDIVMVNVQQIAEMGAYVKLLEYDNIEGMILLSELSRRRIRSIQKLIRVGKNDVAVVLRVDKEKGYIDLSKRRVSSEDIIKCEEKYQKSKTVHSILRYCAEKFQIPLEELYKTIAWPLSRKFGHAYEAFKLSIIDETVWEGIEPPSKDVLDELKNYISKRLTPQAVKIRADVEVSCFSYEGIDAIKDALKSAEDMSTEQMQVKVKLVAAPLYVLTTQALDKQKGIEQLESAIEKITEVITKYGGVCNITMPPKAVTATEDAELQALLESKELDNRSDSEDDEDESDDE
modifications: phosphoserine at 51 (52 sequence numbering); measured by mass spectrometry to be 89.4%
notes: eIF2α, S. cerevisiae; Subunit of m1 as it stood in the eIF2B-eIF2(αP) complex; also called eIF2(αP) α subunit; source: purified from S. cerevisiae strain GP3511 as part of eIF2; phosphorylated in vitro by human PKR (Invitrogen)
B3: eIF2Bγ (natural protein, Saccharomyces cerevisiae)
chain: MSIQAFVFCGKGSNLAPFTQPDFPFQTQNKDSTAATSGDKLNELVNSALDSTVINEFMQHSTRLPKALLPIGNRPMIEYVLDWCDQADFKEISVVAPVDEIELIESGLTSFLSLRKQQFELIYKALSNSNHSHHLQDPKKINFIPSKANSTGESLQKELLPRINGDFVILPCDFVTDIPPQVLVDQFRNRDDNNLAMTIYYKNSLDSSIDKKQQQKQKQQQFFTVYSENEDSERQPILLDVYSQRDVTKTKYLQIRSHLLWNYPNLTVSTKLLNSFIYFCSFELCQLLKLGPQSMSRQASFKDPFTGNQQQQNPPTTDDDEDRNHDDDDDYKPSATSIQPTYFKKKNDLILDPINCNKSLSKVFRDLSRRSWQHSKPREPIGIFILPNETLFIRANNLNAYMDANRFVLKIKSQTMFTKNIQIQSAAIGADAIVDPKCQISAHSNVKMSVLGTQANIGSRCRVAGSLLFPGVHLGDEVILENCIIGPMAKIGSKCKLSNCYIEGHYVVEPKNNFKGETLANVYLDEDEEDELIYDDSVIAGESEIAEETDSDDRSDEDSDDSEYTDEYEYEDDGLFER
notes: eIF2Bγ, S. cerevisiae; Subunit of m2 as it stood in the eIF2B-eIF2(αP) complex; also called eIF2B γ subunit; source: over-expressed in S. cerevisiae strain GP4109, purified as part of Flag-tagged eIF2B
B4: eIF2β (natural protein, Saccharomyces cerevisiae, UniProt P09064 1-285, looked up)
chain: MSSDLAAELGFDPALKKKKKTKKVIPDDFDAAVNGKENGSGDDLFAGLKKKKKKSKSVSADAEAEKEPTDDIAEALGELSLKKKKKKTKDSSVDAFEKELAKAGLDNVDAESKEGTPSANSSIQQEVGLPYSELLSRFFNILRTNNPELAGDRSGPKFRIPPPVCLRDGKKTIFSNIQDIAEKLHRSPEHLIQYLFAELGTSGSVDGQKRLVIKGKFQSKQMENVLRRYILEYVTCKTCKSINTELKREQSNRLFFMVCKSCGSTRSVSSIKTGFQATVGKRRRM
notes: eIF2β, S. cerevisiae; Subunit of m1 as it stood in the eIF2B-eIF2(αP) complex; also called eIF2 β subunit; source: purified from S. cerevisiae strain GP3511 as part of eIF2
B5: eIF2γ (natural protein, Saccharomyces cerevisiae, UniProt P32481 1-527, looked up)
chain: MSDLQDQEPSIIINGNLEPVGEPDIVEETEVVAQETQETQDADKPKKKVAFTGLEEDGETEEEKRKREFEEGGGLPEQPLNPDFSKLNPLSAEIINRQATINIGTIGHVAHGKSTVVRAISGVQTVRFKDELERNITIKLGYANAKIYKCQEPTCPEPDCYRSFKSDKEISPKCQRPGCPGRYKLVRHVSFVDCPGHDILMSTMLSGAAVMDAALLLIAGNESCPQPQTSEHLAAIEIMKLKHVIILQNKVDLMREESALEHQKSILKFIRGTIADGAPIVPISAQLKYNIDAVNEFIVKTIPVPPRDFMISPRLIVIRSFDVNKPGAEIEDLKGGVAGGSILNGVFKLGDEIEIRPGIVTKDDKGKIQCKPIFSNIVSLFAEQNDLKFAVPGGLIGVGTKVDPTLCRADRLVGQVVGAKGHLPNIYTDIEINYFLLRRLLGVKTDGQKQAKVRKLEPNEVLMVNIGSTATGARVVAVKADMARLQLTSPACTEINEKIALSRRIEKHWRLIGWATIKKGTTLEPIA
notes: eIF2γ, S. cerevisiae; Subunit of m1 as it stood in the eIF2B-eIF2(αP) complex; also called eIF2 γ subunit; source: purified from S. cerevisiae strain GP3511 as part of eIF2

Columns and labels:
Experiment in all cases: cryo-EM structure; eIF2(αP) with 2 mM GDP added to Flag-tagged eIF2B immobilised on Anti-Flag M2 gel, eluted with 3XFlag-peptide; 20 mM Hepes (pH 7.5), 100 mM KCl, 5 mM MgCl2, 5 mM β-ME; diluted to ~200 nM with 0.1% glutaraldehyde; six maps, 4.2 to 10.4 Å
Conditions in all cases: both partners purified
eIF2Bβ = biological target: T1, eIF2Bβ
eIF2Bδ = biological target: T2, eIF2Bδ
eIF2Bα = biological target: B1
eIF2Bε = biological target: T3, eIF2Bε
eIF2Bγ = biological target: B3

Row | Binder | binding result (eIF2Bβ) | binding result (eIF2Bε) | binding result (eIF2Bγ) | further results
1 | B1 | binds |  |  | 
2 | B2 | binds |  |  | binding result (eIF2Bδ): binds; binding result (eIF2Bα): binds
3 | B3 |  | binds |  | 
4 | B4 |  | binds | binds | 
5 | B5 |  |  | binds | 
